According to article PMC4520771 (Journal of structural biology, 2015):

Target: the molecule itself
Experiment: SEC

B1: EspB_(1-338), N-terminal EspB fragment (domain or fragment)
chain: MTQSQTVTVDQQEILNRANEVEAPMADPPTDVPITPCELTAAKNAAQQLVLSADNMREYLAAGAKERQRLATSLRNAAKAYGEVDEEAATALDNDGEGTVQAESAGAVGGDSSAELTDTPRVATAGEPNFMDLKEAARKLETGDQGASLAHFADGWNTFNLTLQGDVKRFRGFDNWEGDAATACEASLDQQRQWILHMAKLSAAMAKQAQYVAQLHVWARREHPTYEDIVGLERLYAENPSARDQILPVYAEYQQRSEKVLTEYNNKAALEPVNPPKPPPAIKIDPPPPPQEQGLIPGFLMPPSDGSGVTPGTGMPAAPMVPPTGSPGGGLPADTAAQ
  binding result: binds
